Experimental data: patent US20200399381A1 (I MAB BIOPHARMA US, published 2020)
Residue numbers refer to the chain shown, from its start. One block for each binder: values may come before it.

Tests used:
[1] = target: T1, human IFNAR-1 protein (form not stated) (human, UniProt P17181 28-436, limits assumed); experiment: affinity ranking of expressed humanized 8G11 IgGs (method not named)
T1 construct: bispecific ELISA
T1 sequence (looked up): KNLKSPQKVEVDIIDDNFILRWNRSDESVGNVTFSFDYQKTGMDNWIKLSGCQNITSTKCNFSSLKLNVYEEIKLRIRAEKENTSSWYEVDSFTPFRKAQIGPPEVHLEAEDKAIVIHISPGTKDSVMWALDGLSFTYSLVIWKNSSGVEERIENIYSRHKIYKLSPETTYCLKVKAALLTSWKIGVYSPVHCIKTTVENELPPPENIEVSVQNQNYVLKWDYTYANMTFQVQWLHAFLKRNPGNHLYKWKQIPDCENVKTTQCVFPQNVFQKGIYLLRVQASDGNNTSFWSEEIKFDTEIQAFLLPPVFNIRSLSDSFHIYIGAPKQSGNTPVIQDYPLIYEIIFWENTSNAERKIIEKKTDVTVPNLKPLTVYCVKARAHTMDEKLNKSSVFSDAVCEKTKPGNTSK

[2] = target: T1, human IFNAR-1 protein (form not stated); experiment: affinity ranking of expressed humanized 485G10 IgGs (method not named)

Kd [1]: 0.489 nM | koff [1]: 9.94e-05 s⁻¹ | kon [1]: 203000 M⁻¹ s⁻¹
B1: 8G11 humanized VH4 + VL1 (antibody, V domains shown)
VH: QVQLVQSGAEVVKPGASVKLSCKGSGFNIKDYYMHWVKQAPGQGLEWIGRIDPEDAETKYAPKFQGRATITADTSTSTAYLELSSLRSEDTAVYYCARGGNFYVMDYWGQGTLVTVSS
VL: DIQLTQSPSFLSASVGDRVTITCKASQNVGTNVVWYQQKPGKAPKLLIYSASYRVSGVPSRFSGSGSGTEFTLTISSLQPEDFATYYCQQKNNYPYTFGQGTKLEIK
notes: Humanized IgG expressed in HEK293; also called VH4 + VL1 (8G11)

Kd [2]: 9.33 nM | koff [2]: 0.00475 s⁻¹ | kon [2]: 509000 M⁻¹ s⁻¹
B3: 485G10 humanized VH0 + VL1 (antibody, V domains shown)
VH: QVQLVQSGAEVKKPGASVKVSCKASGFNIKDYYIHWVRQAPGQGLEWMGRIDPEDAETKYAPKFQGRVTMTRDTSISTAYMELSRLRSDDTVVYYCARYHGYWALDYWGQGTLVTVSS
VL: DIQMTQSPSSLSASVGDRVTITCKTSQNVGTNVAWFQQKPGKAPKSLIYSTSYRYSGVPSRFSGSGSGTDFTLTISSLQPEDFATYYCHQYFSYPYTFGPGTKVDIK
notes: Humanized IgG expressed in HEK293; also called VH0 + VL1 (485G10)

Kd [2]: 19.1 nM | koff [2]: 0.0185 s⁻¹ | kon [2]: 971000 M⁻¹ s⁻¹
B4: 485G10 humanized VH3 + VL1 (antibody, V domains shown)
VH: B3 VH with V20L, A24G, R38K, M48I, V68A, M70I, R72A, M81L, A97G
VL: B3 VL
notes: Humanized IgG expressed in HEK293; also called VH3 + VL1 (485G10)

Kd [2]: 0.841 nM | koff [2]: 0.000279 s⁻¹ | kon [2]: 332000 M⁻¹ s⁻¹
B6: 485G10 humanized VH3 + VL3 (antibody, V domains shown)
VH: B3 VH with V20L, A24G, R38K, M48I, V68A, M70I, R72A, M81L, A97G
VL: B3 VL with A13T, F36Y, S46P, L78V, V104L
notes: Humanized IgG expressed in HEK293; also called VH3 + VL3 (485G10)

Kd [2]: 0.906 nM | koff [2]: 0.000298 s⁻¹ | kon [2]: 329000 M⁻¹ s⁻¹
B8: 485G10 humanized VH2 + VL2 (antibody, V domains shown)
VH: B3 VH with V20L, R38K, M48I, R72A, A97G
VL: B3 VL with A13T, F36Y, S46P
notes: Humanized IgG expressed in HEK293; also called VH2 + VL2 (485G10)

Kd [2]: 0.766 nM | koff [2]: 0.000271 s⁻¹ | kon [2]: 354000 M⁻¹ s⁻¹
B9: 485G10 humanized VH3 + VL4 (antibody, V domains shown)
VH: B3 VH with V20L, A24G, R38K, M48I, V68A, M70I, R72A, M81L, A97G
VL: B3 VL with A13T, I21V, F36Y, S46P, L78V, V104L
notes: Humanized IgG expressed in HEK293; also called VH3 + VL4 (485G10)

Kd [2]: 1.07 nM | koff [2]: 0.000316 s⁻¹ | kon [2]: 294000 M⁻¹ s⁻¹
B12: 485G10 humanized VH0 + VL3 (antibody, V domains shown)
VH: B3 VH
VL: B3 VL with A13T, F36Y, S46P, L78V, V104L
notes: Humanized IgG expressed in HEK293; also called VH0 + VL3 (485G10)

Kd [2]: 0.99 nM | koff [2]: 0.0003 s⁻¹ | kon [2]: 303000 M⁻¹ s⁻¹
B13: 485G10 humanized VH2 + VL4 (antibody, V domains shown)
VH: B3 VH with V20L, R38K, M48I, R72A, A97G
VL: B3 VL with A13T, I21V, F36Y, S46P, L78V, V104L
notes: Humanized IgG expressed in HEK293; also called VH2 + VL4 (485G10)

Further lines, the binder ahead of its results:

B2: 8G11 humanized VH4 + VL2 (antibody, V domains shown)
VH: B1 VH
VL: B1 VL with A13T, A43S, L46V, T74I
notes: Humanized IgG expressed in HEK293; also called VH4 + VL2 (8G11)
Kd [1]: 0.332 nM | koff [1]: 9.69e-05 s⁻¹ | kon [1]: 292000 M⁻¹ s⁻¹

B5: 485G10 humanized VH1 + VL1 (antibody, V domains shown)
VH: B3 VH with R72A
VL: B3 VL
notes: Humanized IgG expressed in HEK293; also called VH1 + VL1 (485G10)
Kd [2]: 3.14 nM | koff [2]: 0.00103 s⁻¹ | kon [2]: 328000 M⁻¹ s⁻¹

B7: 485G10 humanized VH3 + VL2 (antibody, V domains shown)
VH: B3 VH with V20L, A24G, R38K, M48I, V68A, M70I, R72A, M81L, A97G
VL: B3 VL with A13T, F36Y, S46P
notes: Humanized IgG expressed in HEK293; also called VH3 + VL2 (485G10)
Kd [2]: 0.864 nM | koff [2]: 0.000264 s⁻¹ | kon [2]: 306000 M⁻¹ s⁻¹

B10: 485G10 humanized VH2 + VL1 (antibody, V domains shown)
VH: B3 VH with V20L, R38K, M48I, R72A, A97G
VL: B3 VL
notes: Humanized IgG expressed in HEK293; also called VH2 + VL1 (485G10)
Kd [2]: 20.5 nM | koff [2]: 0.00663 s⁻¹ | kon [2]: 323000 M⁻¹ s⁻¹

B11: 485G10 humanized VH0 + VL2 (antibody, V domains shown)
VH: B3 VH
VL: B3 VL with A13T, F36Y, S46P
notes: Humanized IgG expressed in HEK293; also called VH0 + VL2 (485G10)
Kd [2]: 1.57 nM | koff [2]: 0.000439 s⁻¹ | kon [2]: 279000 M⁻¹ s⁻¹

B14: 485G10 humanized VH0 + VL4 (antibody, V domains shown)
VH: B3 VH
VL: B3 VL with A13T, I21V, F36Y, S46P, L78V, V104L
notes: Humanized IgG expressed in HEK293; also called VH0 + VL4 (485G10)
Kd [2]: 1.25 nM | koff [2]: 0.000318 s⁻¹ | kon [2]: 255000 M⁻¹ s⁻¹
